Data on 13 molecules can be found in patent publication US20150166627A1 (Sanofi, published 2015).

Read-outs that look alike come from different tables or passages of the source. Non-standard residues stand in square brackets, D forms with d. No end group written: not given here. Met(O2) = CS(=O)(=O)CC[C@H](N)C(=O)O; d(αMeK) = C[C@@](N)(CCCCN)C(=O)O; Met(O) = CS(=O)CC[C@H](N)C(=O)O; αMeOrn = C[C@](N)(CCCN)C(=O)O; αMeK = C[C@](N)(CCCCN)C(=O)O; Nle = CCCC[C@H](N)C(=O)O; Aib = CC(C)(N)C(=O)O

Holding throughout (experiment): cell-based or functional assay
In assay [1] the target is T1, human GIP receptor (human, UniProt P48546 22-466).
T1 sequence (looked up): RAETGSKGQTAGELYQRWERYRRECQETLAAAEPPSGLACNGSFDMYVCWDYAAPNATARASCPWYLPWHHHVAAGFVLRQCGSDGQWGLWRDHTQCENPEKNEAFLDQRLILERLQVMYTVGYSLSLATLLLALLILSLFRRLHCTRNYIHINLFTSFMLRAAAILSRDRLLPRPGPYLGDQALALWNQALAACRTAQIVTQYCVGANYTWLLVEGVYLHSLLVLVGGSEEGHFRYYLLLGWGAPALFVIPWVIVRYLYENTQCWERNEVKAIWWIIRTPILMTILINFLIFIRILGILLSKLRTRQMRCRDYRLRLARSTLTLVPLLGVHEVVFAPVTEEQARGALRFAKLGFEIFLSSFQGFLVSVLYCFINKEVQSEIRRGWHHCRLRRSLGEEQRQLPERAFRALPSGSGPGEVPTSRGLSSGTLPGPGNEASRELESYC

In the next assay the target is human glucagon receptor (human, UniProt P47871 26-477).
Chain of human glucagon receptor (P47871 26-477): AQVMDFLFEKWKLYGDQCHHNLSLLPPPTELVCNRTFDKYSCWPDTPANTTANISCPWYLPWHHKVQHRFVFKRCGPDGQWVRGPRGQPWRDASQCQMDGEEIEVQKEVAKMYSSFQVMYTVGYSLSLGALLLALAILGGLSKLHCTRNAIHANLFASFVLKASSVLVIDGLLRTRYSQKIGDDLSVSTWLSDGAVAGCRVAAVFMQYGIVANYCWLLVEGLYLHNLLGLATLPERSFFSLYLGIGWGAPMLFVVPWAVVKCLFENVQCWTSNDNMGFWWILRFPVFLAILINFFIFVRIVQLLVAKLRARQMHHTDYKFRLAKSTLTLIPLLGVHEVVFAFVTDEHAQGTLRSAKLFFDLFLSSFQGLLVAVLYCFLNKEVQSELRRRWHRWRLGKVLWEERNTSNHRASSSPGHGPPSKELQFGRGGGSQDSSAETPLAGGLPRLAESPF
Assay [2] addresses T2, human GLP-1 receptor (human, UniProt P43220 24-463).
For assay [3], the target named is T2, human GLP-1 receptor. This is another data set of the same source.
Target sequence in this assay (P43220 24-463): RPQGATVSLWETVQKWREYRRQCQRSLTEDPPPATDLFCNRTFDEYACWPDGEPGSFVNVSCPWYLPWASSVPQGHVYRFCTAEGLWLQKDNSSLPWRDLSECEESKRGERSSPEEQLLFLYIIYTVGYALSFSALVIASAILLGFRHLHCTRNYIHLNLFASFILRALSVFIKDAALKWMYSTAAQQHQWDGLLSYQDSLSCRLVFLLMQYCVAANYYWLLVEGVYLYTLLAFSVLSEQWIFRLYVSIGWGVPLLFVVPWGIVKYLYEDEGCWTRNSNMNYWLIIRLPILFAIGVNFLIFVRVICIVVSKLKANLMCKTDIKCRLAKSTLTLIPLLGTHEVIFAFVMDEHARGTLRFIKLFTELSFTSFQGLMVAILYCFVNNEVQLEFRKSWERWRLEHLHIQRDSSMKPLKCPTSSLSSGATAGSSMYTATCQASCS
In assay [4] the target is T1, human GIP receptor. This is another data set of the same source.

For Y[Aib]EGTFTSDLSIQ[Nle]EKEAVRLFIEWLKAGGPSSGAPPPSK-NH2 [SEQ ID NO: 12], the “EC50 hGIP R [pM], cAMP formation” value with human GIP receptor [1] turned out to be 8.7 pM. Moreover, the “EC50 hGLUC R [pM], cAMP formation” value with human glucagon receptor was above 1e+06 pM.
Turning to Y[Aib]EGTFTSDLSIQLEEEAV[αMeOrn]LFIEWLKAGGPSSGAPPPS-NH2 [SEQ ID NO: 19], the “EC50 hGIP R [pM], cAMP formation” value with human GIP receptor [1] was 2.2 pM. Also, the “EC50 hGLUC R [pM], cAMP formation” value in the assay with human glucagon receptor was above 1e+06 pM.
As to Y[Aib]EGTFTSDLSIQLEEEAV[Aib]LFIEWLKAGGPSSGAPPPS-NH2 [SEQ ID NO: 16], the “EC50 hGLP-1 R [pM], cAMP formation” value with human GLP-1 receptor [2] came to 1 pM. For the same molecule, in the assay with human GIP receptor [1], the “EC50 hGIP R [pM], cAMP formation” value was 1.5 pM. The “EC50 hGLUC R [pM], cAMP formation” value in the assay with human glucagon receptor is above 1e+06 pM.
Consider Y[Aib]EGTFTSDLSIQLEKEAVRLFIEWLKAGGPSSGAPPPS-NH2 [SEQ ID NO: 10], for which, in the assay with human GIP receptor [1], the “EC50 hGIP R [pM], cAMP formation” value came to 6.8 pM. Also, the “EC50 hGLUC R [pM], cAMP formation” value with human glucagon receptor is above 1e+06 pM.
Take Y[Aib]EGTFTSDLSIQLEEEAV[αMeK]LFIEWLKAGGPSSGAPPPS-NH2 [SEQ ID NO: 17]: the “EC50 hGLP-1 R [pM], cAMP formation” value with human GLP-1 receptor [2] came out at 1.1 pM. In the assay with human GIP receptor [1], the “EC50 hGIP R [pM], cAMP formation” value was determined as 1.8 pM. In addition, the “EC50 hGLUC R [pM], cAMP formation” value with human glucagon receptor was above 1e+06 pM.
On to YXEGTFTSDLSIQMEEEAVRLFIEWLKAGGPSSGAPPPS (Aib at position 2; C-terminal amide (-NH2)) [SEQ ID NO: 8], for which, in the assay with human GIP receptor [1], the “EC50 hGIP R [pM], cAMP formation” value stood at 9.8 pM. Moreover, in the assay with human glucagon receptor, the “EC50 hGLUC R [pM], cAMP formation” value is above 1e+06 pM.
For Y[Aib]EGTFTSDLSIQLEEEAV[d(αMeK)]LFIEWLKAGGPSSGAPPPS-NH2 [SEQ ID NO: 18], the “EC50 hGLP-1 R [pM], cAMP formation” value with human GLP-1 receptor [2] is 2 pM. Besides, the “EC50 hGIP R [pM], cAMP formation” value in the assay with human GIP receptor [1] stood at 36.1 pM. Also, in the assay with human glucagon receptor, the “EC50 hGLUC R [pM], cAMP formation” value is above 1e+06 pM.
In the case of YAEGTFTSDVSIYLEGQAAKEFIAWLVKGR (ends and bridges not checked) [Tyr(1)Ile(12)-GLP1], the “EC50 hGLP-1 R [pM], cAMP formation” value with human GLP-1 receptor [3] is 5 pM. Besides, the “EC50 hGIP R [pM], cAMP formation” value with human GIP receptor [4] is 3660 pM.
On to Y[Aib]EGTFTSDLSIQ[Met(O2)]EKEAVRLFIEWLKAGGPSSGAPPPS-NH2 [SEQ ID NO: 14], for which the “EC50 hGLP-1 R [pM], cAMP formation” value with human GLP-1 receptor [2] worked out at 0.6 pM. The “EC50 hGIP R [pM], cAMP formation” value with human GIP receptor [1] was 4.1 pM. Also, the “EC50 hGLUC R [pM], cAMP formation” value with human glucagon receptor was above 1e+06 pM.
On to Y[Aib]EGTFTSDLSIQLEKEAVRLFIEWLKAGGPSSGAPPPS-NH2 [SEQ ID NO: 20], for which the “EC50 hGLP-1 R [pM], cAMP formation” value in the assay with human GLP-1 receptor [2] was determined as 1 pM. For the same molecule, the “EC50 hGIP R [pM], cAMP formation” value in the assay with human GIP receptor [1] turned out to be 3.9 pM. For the same molecule, in the assay with human glucagon receptor, the “EC50 hGLUC R [pM], cAMP formation” value is above 1e+06 pM.
In the case of Y[Aib]EGTFTSDLSIQ[Met(O)]EKEAVRLFIEWLKAGGPSSGAPPPS-NH2 [SEQ ID NO: 13], in the assay with human GLP-1 receptor [2], the “EC50 hGLP-1 R [pM], cAMP formation” value was 0.4 pM. The “EC50 hGIP R [pM], cAMP formation” value in the assay with human GIP receptor [1] is 8.1 pM. Further, in the assay with human glucagon receptor, the “EC50 hGLUC R [pM], cAMP formation” value was above 1e+06 pM.
Taken in the same sequence, the figures for Y[Aib]EGTFTSDLSIQMEKEAVRLFIEWLKAGGPSSGAPPPS-NH2 [SEQ ID NO: 9] were 1.1 pM, 3.1 pM and above 1e+06 pM.
Taken in the same sequence, the figures for Y[Aib]EGTFTSDLSIQLEEEAVRLFIEWLKAGGPSSGAPPPS-NH2 [SEQ ID NO: 15] were 1.4 pM, 7.3 pM and above 1e+06 pM.
